From publication PMC9363494, “C-terminal truncation modulates α-Synuclein’s cytotoxicity and aggregation by promoting the interactions with membrane and chaperone” (Communications Biology, 2022)

Target: T1, C-terminally truncated α-synuclein (residues 1-99) (UniProt P37840 1-99)
T1 construct: α-synuclein with a deletion of the C-terminus, amino acids 1-99; Uniformly 15N-enriched for the NMR experiments; also called CT-α-syn; source: E. coli BL21 (DE3), purified (SP cation exchange, Superdex 75)
Assay: NMR titration; 1H-15N HSQC of 0.3 mM 15N-enriched FL- or CT-α-syn titrated with PDI (mole ratios 10:1 to 1:1, 0-300 μM PDI); 20 mM HEPES, 100 mM NaCl, 5 mM TCEP, pH 7.0, 10% D2O, 15 °C; KD from fits of the average CSPs of residues in segment 1 and in segment 2
Conditions: both partners purified

B1: protein disulfide isomerase (enzyme)
chain: not shown
notes: human protein disulfide isomerase (PDI); the human PDI gene cloned into pET-28a; The vector has a TEV protease cleavage site after the His6-tag; no cleavage step is described; also called PDI; source: E. coli BL21 (DE3), purified (HisTrap, Resource Q, Superdex 200)
KD of segment 1: ~40 µM | KD of segment 2: ~400 µM
